T1: cynomolgus monkey FcγRIIa2 extracellular domain with C-terminal His-tag (cynomolgus monkey)
T1 construct: Expressed in FreeStyle 293 cells and purified; also called cyno FcγRIIa2; cynoFcgRIIa2; not shown: C-terminal His-tag
T1 chain: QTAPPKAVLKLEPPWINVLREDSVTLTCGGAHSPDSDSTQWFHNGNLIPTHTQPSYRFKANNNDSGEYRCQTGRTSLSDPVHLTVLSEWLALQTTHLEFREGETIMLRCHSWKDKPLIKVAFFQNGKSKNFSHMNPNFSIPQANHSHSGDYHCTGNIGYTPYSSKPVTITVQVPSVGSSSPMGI

T2: human FcγRIIaR extracellular domain with C-terminal His-tag (human, UniProt P12318 34-217)
T2 construct: Expressed in FreeStyle 293 cells and purified; also called human FcγRIIa (type R); FcgRIIaR; not shown: C-terminal His-tag
T2 chain: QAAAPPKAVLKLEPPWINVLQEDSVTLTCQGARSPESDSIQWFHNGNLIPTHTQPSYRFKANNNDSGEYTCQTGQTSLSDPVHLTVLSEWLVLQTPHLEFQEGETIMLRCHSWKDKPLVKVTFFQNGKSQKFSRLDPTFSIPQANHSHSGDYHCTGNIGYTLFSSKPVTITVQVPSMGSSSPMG

T3: cynomolgus monkey FcγRIIa3 extracellular domain with C-terminal His-tag (cynomolgus monkey)
T3 construct: Expressed in FreeStyle 293 cells and purified; also called cyno FcγRIIa3; cynoFcgRIIa3; not shown: C-terminal His-tag
T3 chain: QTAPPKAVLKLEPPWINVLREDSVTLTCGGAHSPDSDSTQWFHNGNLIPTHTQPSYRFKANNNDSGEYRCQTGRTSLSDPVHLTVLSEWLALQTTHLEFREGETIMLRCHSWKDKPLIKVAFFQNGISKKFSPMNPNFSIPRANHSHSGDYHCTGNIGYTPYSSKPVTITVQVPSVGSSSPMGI

T4: cynomolgus monkey FcγRIIa1 extracellular domain with C-terminal His-tag (cynomolgus monkey)
T4 construct: Expressed in FreeStyle 293 cells and purified; also called cyno FcγRIIa1; cynoFcgRIIa1; not shown: C-terminal His-tag
T4 chain: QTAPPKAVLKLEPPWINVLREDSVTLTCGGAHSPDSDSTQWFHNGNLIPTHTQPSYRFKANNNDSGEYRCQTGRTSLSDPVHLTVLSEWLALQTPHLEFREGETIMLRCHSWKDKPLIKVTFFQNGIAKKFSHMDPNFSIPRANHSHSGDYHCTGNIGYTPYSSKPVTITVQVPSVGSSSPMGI

T5: human FcγRIIb extracellular domain with C-terminal His-tag (human, UniProt P31994 43-217)
T5 construct: Expressed in FreeStyle 293 cells and purified; also called humanFcgRIIb; not shown: C-terminal His-tag
T5 sequence: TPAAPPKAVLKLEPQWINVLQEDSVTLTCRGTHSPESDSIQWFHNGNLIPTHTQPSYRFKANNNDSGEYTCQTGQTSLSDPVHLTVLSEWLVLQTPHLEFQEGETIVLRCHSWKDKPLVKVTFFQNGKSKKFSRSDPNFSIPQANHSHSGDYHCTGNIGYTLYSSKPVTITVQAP

T6: cynomolgus monkey FcγRIIb extracellular domain with C-terminal His-tag (cynomolgus monkey)
T6 construct: Expressed in FreeStyle 293 cells and purified; also called cyno FcγRIIb; cynoFcγRIIb; not shown: C-terminal His-tag
T6 chain: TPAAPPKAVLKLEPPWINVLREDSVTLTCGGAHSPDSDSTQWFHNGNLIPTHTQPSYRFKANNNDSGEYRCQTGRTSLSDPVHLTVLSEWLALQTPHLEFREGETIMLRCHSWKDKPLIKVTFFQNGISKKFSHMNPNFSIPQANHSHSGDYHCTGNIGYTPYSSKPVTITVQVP

T7: human FcγRIIaH extracellular domain with C-terminal His-tag (human, UniProt P12318 34-217)
T7 construct: Expressed in FreeStyle 293 cells and purified; also called human FcγRIIa (type H); FcgRIIaH; not shown: C-terminal His-tag
T7 sequence: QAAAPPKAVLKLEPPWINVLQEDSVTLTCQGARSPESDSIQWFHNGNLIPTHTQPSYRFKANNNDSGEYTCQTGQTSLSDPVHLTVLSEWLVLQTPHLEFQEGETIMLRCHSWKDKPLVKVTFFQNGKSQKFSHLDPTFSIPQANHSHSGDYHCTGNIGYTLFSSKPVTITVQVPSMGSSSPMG

T8: cynomolgus monkey FcγRIIIaS extracellular domain with C-terminal His-tag (cynomolgus monkey, UniProt Q8SPW2 21-206 at identity 1.00))
T8 construct: Expressed in FreeStyle 293 cells and purified; also called cyno FcγRIIIaS; cynoFcγRIIIaS; not shown: C-terminal His-tag
T8 chain: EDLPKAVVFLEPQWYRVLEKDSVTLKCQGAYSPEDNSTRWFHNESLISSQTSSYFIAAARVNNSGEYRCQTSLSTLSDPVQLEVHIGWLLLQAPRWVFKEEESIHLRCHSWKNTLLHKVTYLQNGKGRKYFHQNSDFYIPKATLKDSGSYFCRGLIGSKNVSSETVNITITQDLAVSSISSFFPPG


Legend:
Assay in all cases: SPR (Biacore); KD of SG1 divided by KD of the variant for this FcgR;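 also: relative to parent M103205H795-SG1 carrying the SG1 human heavy chain constant region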
[1] = molecular target: T1, cynomolgus monkey FcγRIIa2 …
Protocol: (§1) Regarding such interactions, KD values were calculated using the following 1:1 binding model described in BIACORE® T100 Software Handbook BR1006-48 Edition AE.
(§2) The behavior of interacting molecules according to the 1:1 binding model on BIACORE® can be described by Equation 1: Req=C·R max/(KD+C)+RI, wherein, Req is a plot of steady-state binding levels to analyte concentration. C is concentration, RI is bulk refractive index contribution in the sample, and Rmax is analyte binding capacity of the surface. When this equation is rearranged, KD can be expressed as Equation 2: KD=C·Rmax/(Req−RI)−C. KD can be calculated by substituting the values of Rmax, RI, and C into Equation 1 or Equation 2. From the current measurement conditions, RI=0, C=2 μmol/L can be used.
(§3) The variants were expressed using M103202L889-SK1 as the light chain and their affinity was analyzed.

[2] = molecular target: T2, human FcγRIIaR extracellular domain …
Protocol: as §1, §2, §3

[3] = molecular target: T3, cynomolgus monkey FcγRIIa3 …
Protocol: as §1, §2, §3

[4] = molecular target: T4, cynomolgus monkey FcγRIIa1 …
Protocol: as §1, §2, §3

[5] = molecular target: T5, human FcγRIIb extracellular domain with …
Protocol: as §1, §2, §3

[6] = molecular target: T9, human FcγRIIIaV extracellular domain with C-terminal His-tag (human, UniProt P08637 17-208)
T9 construct: Expressed in FreeStyle 293 cells and purified; also called FcgRIIIaV; not shown: C-terminal His-tag
Protocol: as §1, §2, §3

[7] = molecular target: T6, cynomolgus monkey FcγRIIb extracellular …
Protocol: as §1, §2, §3

[8] = molecular target: T7, human FcγRIIaH extracellular domain …
Protocol: as §1, §2, §3

[9] = molecular target: T8, cynomolgus monkey FcγRIIIaS …
Protocol: as §1, §2, §3

T9 sequence (P08637 17-208 F176V): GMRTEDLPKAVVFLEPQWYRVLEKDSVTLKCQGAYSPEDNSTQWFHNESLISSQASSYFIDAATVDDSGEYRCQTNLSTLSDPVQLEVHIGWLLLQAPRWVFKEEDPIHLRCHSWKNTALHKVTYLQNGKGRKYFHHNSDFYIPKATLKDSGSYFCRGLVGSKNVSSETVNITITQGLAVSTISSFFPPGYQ

Row | KD fold (SG1 = 1) [1] [fold] | KD fold (SG1 = 1) [2] [fold] | KD fold (SG1 = 1) [3] [fold] | KD fold (SG1 = 1) [4] [fold] | KD fold (SG1 = 1) [5] [fold] | KD fold (SG1 = 1) [6] [fold] | KD fold (SG1 = 1) [7] [fold] | KD fold (SG1 = 1) [8] [fold] | KD fold (SG1 = 1) [9] [fold] | Binder
1 | 15.5 | 1.4 | 12.1 | 7.3 | 11 | 0.12 | 7.5 | 1.3 | 0.18 | M103205H795-MY198 / M103202L889-SK1 (antibody, human IgG1, kappa, Fc variant of M103205H795-SG1, expressed with M103202L889-SK1 as light chain) heavy: QVTLKESGPVLVKPTETLTLTCTVSGIDLSHDDISWVRQAPGKGLEWVGIISYAGSTYYASWAKGRLTISKDTSKNQVVLTMTNMDPVDTATYYCARGVPAYSHGGDLWGQGTLVTVSSASTKGPSVFPLAPSSKSTSGGTAALGCLVKDYFPEPVTVSWNSGALTSGVHTFPAVLQSSGLYSLSSVVTVPSSSLGTQTYICNVNHKPSNTKVDKKVEPKSCDKTHTCPPCPAPELLNGPVVFLFPPKPKDTLMISRTPEVTCVVVDVSDEDPEVKFNWYVDGVEVHNAKTKPREEQYNSTYRVVSVLTVLHQDWLNGKEYKCKVSNKALPKPIEKTISKAKGQPREPQVYTLPPSREEMTKNQVSLTCLVKGFYPSDIAVEWESNGQPENNYKTTPMVLDSDGSFFLYSKLTVDKSRWQQGNVFSCSVMHEALHNHYTQKSLSLSP light: DIVMTQSPATLSLSPGERATLSCTSSQSVYHANWLSWFQQKPGQPPKLLIYWASTLAYGVPSRFSGSGSGTDFTLTISSLQPEDAATYYCAGGYGGGRYAFGQGTKVEIKRTVAAPSVFIFPPSDEQLKSGTASVVCLLNNFYPREAKVQWKVDNALQSGNSQESVTEQDSKDSTYSLSSTLTLSKADYEKHKVYACEVTHQGLSSPVTKSFNRGEC
2 | 7.4 | 1.3 | 5.9 | 5.1 | 9.2 | 0.06 |  | 1.2 | 0.16 | M103205H795-MY209 / M103202L889-SK1 (antibody, human IgG1, kappa, Fc variant of M103205H795-SG1, expressed with M103202L889-SK1 as light chain) heavy: QVTLKESGPVLVKPTETLTLTCTVSGIDLSHDDISWVRQAPGKGLEWVGIISYAGSTYYASWAKGRLTISKDTSKNQVVLTMTNMDPVDTATYYCARGVPAYSHGGDLWGQGTLVTVSSASTKGPSVFPLAPSSKSTSGGTAALGCLVKDYFPEPVTVSWNSGALTSGVHTFPAVLQSSGLYSLSSVVTVPSSSLGTQTYICNVNHKPSNTKVDKKVEPKSCDKTHTCPPCPAPELLNGPSVFLFPPKPKDTLMISRTPEVTCVVVDVSDEDPEVKFNWYVDGVEVHNAKTKPREELYNSTYRVVSVLTVLHQDWLNGKEYKCKVSNTALPKPIEKTISKAKGQPREPQVYTLPPSREEMTKNQVSLTCLVKGFYPSDIAVEWESNGQPENNYKTTPPVLDSDGSFFLYSKLTVDKSRWQQGNVFSCSVMHEALHNHYTQKSLSLSP light: DIVMTQSPATLSLSPGERATLSCTSSQSVYHANWLSWFQQKPGQPPKLLIYWASTLAYGVPSRFSGSGSGTDFTLTISSLQPEDAATYYCAGGYGGGRYAFGQGTKVEIKRTVAAPSVFIFPPSDEQLKSGTASVVCLLNNFYPREAKVQWKVDNALQSGNSQESVTEQDSKDSTYSLSSTLTLSKADYEKHKVYACEVTHQGLSSPVTKSFNRGEC
3 | 2.6 | 0.4 | 1.4 | 1.7 | 2.4 | 0.06 | 1.6 | 0.6 | 0.09 | M103205H795-MY199 / M103202L889-SK1 (antibody, human IgG1, kappa, Fc variant of M103205H795-SG1, expressed with M103202L889-SK1 as light chain) heavy: QVTLKESGPVLVKPTETLTLTCTVSGIDLSHDDISWVRQAPGKGLEWVGIISYAGSTYYASWAKGRLTISKDTSKNQVVLTMTNMDPVDTATYYCARGVPAYSHGGDLWGQGTLVTVSSASTKGPSVFPLAPSSKSTSGGTAALGCLVKDYFPEPVTVSWNSGALTSGVHTFPAVLQSSGLYSLSSVVTVPSSSLGTQTYICNVNHKPSNTKVDKKVEPKSCDKTHTCPPCPAPELLNGPSVFLFPPKPKDTLMISRTPEVTCVVVDVSEEDPEVKFNWYVDGVEVHNAKTKPREEQYNSTYRVVSVLTVLHQDWLNGKEYKCKVSNKALPKPIEKTISKAKGQPREPQVYTLPPSREEMTKNQVSLTCLVKGFYPSDIAVEWESNGQPENNYKTTPPVLDSDGSFFLYSKLTVDKSRWQQGNVFSCSVMHEALHNHYTQKSLSLSP light: DIVMTQSPATLSLSPGERATLSCTSSQSVYHANWLSWFQQKPGQPPKLLIYWASTLAYGVPSRFSGSGSGTDFTLTISSLQPEDAATYYCAGGYGGGRYAFGQGTKVEIKRTVAAPSVFIFPPSDEQLKSGTASVVCLLNNFYPREAKVQWKVDNALQSGNSQESVTEQDSKDSTYSLSSTLTLSKADYEKHKVYACEVTHQGLSSPVTKSFNRGEC

From patent US20200317768A1 (published 2020)
